The results in this text go back to patent US20120321619A1 (Bayer, published 2012).

Where a chain is given by its changes, count along the chain named.

For test [1], the target named is T1, recombinant soluble human C4.4a (human, UniProt O95274 31-308).
T1 construct: recombinant, soluble, purified protein; also called hC4.4a; full length C4.4a
T1 sequence: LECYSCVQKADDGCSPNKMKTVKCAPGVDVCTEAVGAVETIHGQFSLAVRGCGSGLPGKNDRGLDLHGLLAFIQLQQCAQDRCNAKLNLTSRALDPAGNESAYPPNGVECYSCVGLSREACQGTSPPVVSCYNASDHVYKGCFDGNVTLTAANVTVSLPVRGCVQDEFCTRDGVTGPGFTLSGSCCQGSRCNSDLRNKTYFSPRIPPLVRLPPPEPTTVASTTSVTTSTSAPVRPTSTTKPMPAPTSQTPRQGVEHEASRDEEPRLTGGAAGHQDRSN
Kind of test: direct ELISA, Fab supernatant on coated human C4.4a, signal normalized to Fab quantity. Here is the method:
(§1) Cultures were diluted in 10% Smart Block in PBST and bound to the MTP plates for 1 h at 20° C. After washing with PBST, captured antibodies were incubated with a HRP-coupled anti-lambda antibody (Sigma, A5175) and detected by incubating the plate with 10 μM amplex red substrate (Invitrogen, A12222) for 30 minutes at 20° C. in the dark followed by fluorescence measurement. Determined quantification signals were checked to be in the dynamic range of an calibration series built up with concentrated parental Fab (M31-B01 or M20-D02-S-A) expression culture supernatant allowing a relative quantification of each individual Fab expression sample.
(§2) To determine the activity of the mutated Fab variants on recombinant soluble human or mouse C4.4a a direct ELISA assay format was used. Briefly, MTP plates (Nunc maxisorp black, 460518) were coated with 2 μg/ml either human or mouse C4.4a diluted in coating buffer (Candor Bioscience GmbH, 121125) and incubated for 15 h at 4° C. After washing 3 times with PBST, plates were blocked with 100% Smart Block (Candor Bioscience GmbH, 113500) for 1 h at 20° C. and the washing steps were repeated. For binding of the Fab antibody fragments 20 μl of culturing supernatants were added to the plates for 1 h at 20° C. followed by washing. In some cases the washing stringency was increased by an additional incubation step with 10% Smart Block in PBST for 90 min followed by washing 3 times with PBST (“process B” in Table 10b). Bound parental Fabs and variants were then detected by a HA-epitope tag specific antibody HRP conjugate (Bethyl, A190-108P). 10 μM amplex red substrate (Invitrogen, A12222) was added to the plates and the fluorescence signal was detected using a common fluorescence reader, e.g. Tecan Ultra. Quantity normalized affinity signals were calculated as ratios of background corrected affinity and quantification signals in the respective ELISA: (Signalaffinity−Backgroundaffinity)/(Signalquantity−Backgroundquantity). The resulting values correlate mainly with the affinity in a positive manner, whereas not normalized values correlate additionally with the concentration of the binding Fab in the sample.

Test [2] has as its target T2, recombinant soluble murine C4.4a (mouse, UniProt Q91YK8 33-343, limits assumed).
T2 construct: also called mouse C4.4a; mC4.4a
T2 sequence (looked up): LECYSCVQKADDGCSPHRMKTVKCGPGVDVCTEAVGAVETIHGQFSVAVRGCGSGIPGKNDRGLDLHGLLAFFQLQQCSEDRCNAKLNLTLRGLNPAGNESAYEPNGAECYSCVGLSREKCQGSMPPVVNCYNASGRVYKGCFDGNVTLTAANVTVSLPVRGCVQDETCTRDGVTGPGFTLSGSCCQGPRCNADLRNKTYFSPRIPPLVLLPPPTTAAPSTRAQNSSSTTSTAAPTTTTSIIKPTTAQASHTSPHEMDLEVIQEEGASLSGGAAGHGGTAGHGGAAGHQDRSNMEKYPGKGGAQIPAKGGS
Kind of test: direct ELISA, Fab supernatant on coated mouse C4.4a, signal normalized to Fab quantity. Here is the method: as §1, §2
In general terms: In an ELISA, binding on a coated surface is turned into a signal by an enzyme label.

B1: wild-type Fab M31-B01 (Fab, V domains shown)
VH: EVQLLESGGGLVQPGGSLRLSCAASGFTFSNAWMSWVRQAPGKGLEWVSYISSSGSTIYYADSVKGRFTISRDNSKNTLYLQMNSLRAEDTAVYYCAREGLWAFDYWGQGTLVTVTS
VL: QSVLTQPPSASGTPGQRVTISCTGSSSNIGAGYVVHWYQQLPGTAPKLLIYDNNKRPSGVPDRFSGSKSGTSASLAISGLRSEDEADYYCAAWDDRLNGPVFGGGTKLTVLG
notes: Fab with 3×HA-tag and hexa-histidine tag at the C-terminus of the heavy chain, E. coli culture supernatant; also called M31-B01 (parental Fab)
In the case of B1, in test [1], the “normalized affinity signal (average)” value turned out to be 1.11 and the “normalized affinity signal (median)” value turned out to be 1.23. In test [2], the “normalized affinity signal (average)” value was 0.13 and the “normalized affinity signal (median)” value is 0.16.

B2: M31-B01 Fab HC T56S (Fab, V domains shown)
VH: B1 VH with T57S
VL: B1 VL
notes: Fab with 3×HA-tag and hexa-histidine tag at the C-terminus of the heavy chain, culture supernatant
For B2, the results for the “normalized affinity signal (median)” value in test [1] and in test [2] were 1.58 and 0.74, respectively.

B3: M31-B01 Fab LC W91E (Fab, V domains shown)
VH: B1 VH
VL: B1 VL with W93E
notes: as for B2
On to B3, for which the entries for the “normalized affinity signal (average)” value in test [1] and in test [2] were 3.17 and 0.4, respectively.

B4: M31-B01 Fab HC Y102W (Fab, V domains shown)
VH: B1 VH with Y106W
VL: B1 VL
notes: as for B2
Regarding B4, the “normalized affinity signal (average)” value was 1.65 in test [1] and 0.13 in test [2].

B5: M31-B01 Fab LC G95bR (Fab, V domains shown)
VH: B1 VH
VL: B1 VL with G99R
notes: as for B2
As to B5, the figures for the “normalized affinity signal (average)” value in test [1] and in test [2] were 2.45 and 1.01, respectively.

B6: M31-B01 Fab HC I57T (Fab, V domains shown)
VH: B1 VH with I58T
VL: B1 VL
notes: as for B2
As for B6, the “normalized affinity signal (median)” value was 1.5 in test [1] and 0.73 in test [2].

B7: M31-B01 Fab LC T24S (Fab, V domains shown)
VH: B1 VH
VL: B1 VL with T23S
notes: as for B2
In the case of B7, the figures for the “normalized affinity signal (median)” value in test [1] and in test [2] were 0.77 and 0.23, respectively.

B8: M31-B01 Fab HC A32Y (Fab, V domains shown)
VH: B1 VH with A32Y
VL: B1 VL
notes: as for B2
On to B8, for which the “normalized affinity signal (median)” value in test [1] is 2.31; in test [2], 0.01.

B9: M31-B01 Fab LC W91F (Fab, V domains shown)
VH: B1 VH
VL: B1 VL with W93F
notes: as for B2
Take B9: the “normalized affinity signal (average)” value stood at 4.3 in test [1] and 2.53 in test [2].

B10: M31-B01 Fab HC N31S (Fab, V domains shown)
VH: B1 VH with N31S
VL: B1 VL
notes: as for B2
Consider B10, for which the “normalized affinity signal (median)” value in test [1] was found to be 1.53; in test [2], 0.32.

B11: M31-B01 Fab LC P96A (Fab, V domains shown)
VH: B1 VH
VL: B1 VL with P100A
notes: as for B2
Take B11: the “normalized affinity signal (average)” value in test [1] came out at 0.95; in test [2], 0.32.

B12: M31-B01 Fab LC N95aK (Fab, V domains shown)
VH: B1 VH
VL: B1 VL with N98K
notes: as for B2
Take B12: the “normalized affinity signal (average)” value in test [1] came to 1.11; in test [2], 0.12.

B13: M31-B01 Fab HC Y102K (Fab, V domains shown)
VH: B1 VH with Y106K
VL: B1 VL
notes: as for B2
In the case of B13, the “normalized affinity signal (average)” value was 1.49 in test [1] and 0.21 in test [2].

B14: M31-B01 Fab LC R94M (Fab, V domains shown)
VH: B1 VH
VL: B1 VL with R96M
notes: as for B2
As for B14, the “normalized affinity signal (average)” value in test [1] came out at 1.3; in test [2] it was 0.13.

B15: M31-B01 Fab LC K53Q (Fab, V domains shown)
VH: B1 VH
VL: B1 VL with K55Q
notes: as for B2
Turning to B15, the “normalized affinity signal (median)” value was 1.12 in test [1] and 0.35 in test [2].

B16: M31-B01 Fab LC W91Y (Fab, V domains shown)
VH: B1 VH
VL: B1 VL with W93Y
notes: as for B2
Turning to B16, the “normalized affinity signal (average)” value in test [1] was 4.97; in test [2], 2.79.

B17: wild-type Fab M20-D02 S-A (Fab, V domains shown)
VH: EVQLLESGGGLVQPGGSLRLSCAASGFTFSDYQMTWIRQTPGKGLEWVSGVSWNGARTHYADSVKGRFTISRDNSKNTLYLQMNSLRAEDTAVYYCAKGDYLVYSAYYFDSWGQGTLVTVTS
VL: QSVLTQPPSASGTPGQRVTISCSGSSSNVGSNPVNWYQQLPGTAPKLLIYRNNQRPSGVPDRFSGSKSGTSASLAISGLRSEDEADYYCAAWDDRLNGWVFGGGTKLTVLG
notes: Fab with 3×HA-tag and hexa-histidine tag at the C-terminus of the heavy chain, E. coli culture supernatant; also called M20-D02 S-A (parental Fab)
With B17, in test [1], the “normalized affinity signal (average)” value came out at 0.04 and the “normalized affinity signal (median, process A)” value was determined as 0.15. Besides, in test [2], the “normalized affinity signal (average)” value came out at 0.01 and the “normalized affinity signal (median, process A)” value stood at 0.04.

B18: M20-D02 S-A Fab HC D101K (Fab, V domains shown)
VH: B17 VH with D110K
VL: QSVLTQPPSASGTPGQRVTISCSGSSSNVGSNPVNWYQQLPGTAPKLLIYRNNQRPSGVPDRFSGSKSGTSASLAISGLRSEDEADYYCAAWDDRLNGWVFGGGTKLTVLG
notes: as for B2
For the molecule B18, the “normalized affinity signal (average)” value was found to be 1.65 in test [1] and 0.21 in test [2].

B19: M20-D02 S-A Fab HC D101E (Fab, V domains shown)
VH: B17 VH with D110E
VL: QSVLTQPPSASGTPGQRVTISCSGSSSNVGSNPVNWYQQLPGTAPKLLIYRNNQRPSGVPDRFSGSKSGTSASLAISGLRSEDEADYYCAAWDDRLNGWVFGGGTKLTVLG
notes: as for B2
Consider B19, for which the “normalized affinity signal (average)” value in test [1] was 0.31; in test [2] it was 0.05.

B20: M20-D02 S-A Fab HC A100bS (Fab, V domains shown)
VH: B17 VH with A106S
VL: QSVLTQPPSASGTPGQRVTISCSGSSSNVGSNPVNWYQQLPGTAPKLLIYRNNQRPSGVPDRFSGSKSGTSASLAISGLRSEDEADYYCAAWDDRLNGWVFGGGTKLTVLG
notes: as for B2
B20: the figures for the “normalized affinity signal (average)” value in test [1] and in test [2] were 0.34 and 0.02, respectively.

B21: M20-D02 S-A Fab HC A55G (Fab, V domains shown)
VH: B17 VH with A56G
VL: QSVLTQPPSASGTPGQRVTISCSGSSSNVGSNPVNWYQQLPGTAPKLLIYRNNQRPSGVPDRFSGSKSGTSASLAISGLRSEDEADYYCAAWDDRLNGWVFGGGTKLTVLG
notes: as for B2
In the case of B21, the “normalized affinity signal (median, process A)” value is 0.15 in test [1] and 0.04 in test [2].

B22: M20-D02 S-A Fab HC S100aK (Fab, V domains shown)
VH: B17 VH with S105K
VL: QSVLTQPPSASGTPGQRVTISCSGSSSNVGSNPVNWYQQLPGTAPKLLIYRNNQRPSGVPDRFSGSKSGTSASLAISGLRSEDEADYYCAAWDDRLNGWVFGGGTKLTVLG
notes: as for B2
B22: the “normalized affinity signal (average)” value in test [1] stood at 0.45; in test [2], 0.06.

B23: M20-D02 S-A Fab HC R56S (Fab, V domains shown)
VH: B17 VH with R57S
VL: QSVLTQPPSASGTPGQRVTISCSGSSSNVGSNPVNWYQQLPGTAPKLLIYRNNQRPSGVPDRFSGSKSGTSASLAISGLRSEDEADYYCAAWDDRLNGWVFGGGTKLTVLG
notes: as for B2
For B23, the “normalized affinity signal (median, process A)” value turned out to be 0.21 in test [1] and 0.06 in test [2].

B24: M20-D02 S-A Fab HC A100bR (Fab, V domains shown)
VH: B17 VH with A106R
VL: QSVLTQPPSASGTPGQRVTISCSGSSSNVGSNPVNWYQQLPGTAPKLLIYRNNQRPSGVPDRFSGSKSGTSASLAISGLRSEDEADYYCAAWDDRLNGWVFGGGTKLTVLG
notes: as for B2
Take B24: the results for the “normalized affinity signal (average)” value in test [1] and in test [2] were 0.87 and 0.01, respectively.

B25: M20-D02 S-A Fab LC N95aW (Fab, V domains shown)
VH: B17 VH
VL: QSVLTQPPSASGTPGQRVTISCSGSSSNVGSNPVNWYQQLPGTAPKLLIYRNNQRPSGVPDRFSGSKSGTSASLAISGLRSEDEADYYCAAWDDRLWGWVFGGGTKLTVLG
notes: as for B2
Take B25: the “normalized affinity signal (average)” value in test [1] came to 0.11.

B26: M20-D02 S-A Fab HC D101R (Fab, V domains shown)
VH: B17 VH with D110R
VL: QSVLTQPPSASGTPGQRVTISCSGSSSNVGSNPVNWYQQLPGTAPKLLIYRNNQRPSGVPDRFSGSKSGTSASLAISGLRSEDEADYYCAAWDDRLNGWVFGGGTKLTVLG
notes: as for B2
As for B26, the “normalized affinity signal (average)” value in test [1] is 0.61; in test [2], 0.03.
